{"source": "the DeepSol protein solubility set", "data": [{"assay": "soluble on expression in E. coli; label from the status in PepcDB or PDB records", "values": [{"sequence": "MAHHHHHHMLTKDADCEKSQQQKLEEDIKSPCTPSFHWVSDEDPKSDRATNHGCAKPLDWSPQTPETPPMSVAELRVTTVADTSETETTSESATHGNELRANEGESSASGTLEKPAGGVAAAGGAAPAAVPQKTEERGSSVPLKHKRSYGASDAVSSSSCHVDALGDLAGSVRQHHPTSTHTLDTSSSNGVGDAAKHAVAAGHVDESLPPPLSGVFFPFTACDAVTTASLVTLISSYCDVLTLVQLMRVNRSAHLLATSDAVWKPLLVSMNLPPLLAAYERDNDYYDFFVKDIITTRALHGHYTFQAANAASGSRESVSTTSGSRSAVMNRNYVSRDEDSLQDDIFNIASLQLLISAASLGQSNHLIGRVQLLITYKNESMEVLQGSCRFSVHRRCFSLCCSAFGTVKRGPVFTVAVATVTKPWANEGFQHFREHKNGIRLVMAPVLWEGPSPGSQITENDILVVSRPKPVPSLITSTTGSAAANSSLGAPTASRG", "soluble on expression in E. coli": "not soluble"}, {"sequence": "GPGSMPSPLVLTRAAPARGLNVKMFDRKVKGLQRSFVSSPACDLHKLCAQQMLDRRTFVKRDTPVVLEVGAHTGWYLRHMIERKEFHGLKQYIQTDISEDRLNRNYEEIKNIIPPEVEFVQICCDEEQPSPFGIPDKSVDMVVSCLSMHWVNDLETSMVNVRKVLKRDGFFLNAMFGGNTLYELRGCFSMAQTETLGGVSPHVSPMIDGAGLSTLVLQAGFNIPTIDLDRHLLLYETPFHLMEHLAVMGESACHYMRQPMKRDVLLCACAIYDTMYKQNGLFPATFEVFHTIAWSPSPTQAKPLARGSGQIPLSSWNSKSRKQLQSVLDEYALNPNDEVLQNKAEDIFKKLREESAELMAKKGLDSRGFERDRDEEARRLDEKPVPPFQ", "soluble on expression in E. coli": "not soluble"}, {"sequence": "PHFIVECSDNIREEADLPGLFAKVNPTLAATGIFPLAGIRSRVHWVDTWQMADGQHDYAFVHMTLKIGAGRSLESRQQAGEMLFELIKTHFAALMESRLLALSFEIEELHPTLNFKQNNVHALFK", "soluble on expression in E. coli": "soluble"}, {"sequence": "MQEQIQEYAKRLKLSWIRENYREVEAANTEEYLLKLFEKEIEQREERKINLLFKAATLPNVSGKPFDWKDIQLGQGLSQQSLLDGEFIESKENMVFYGGVGAGKTYLSTLIGMNAIQKYGKRVKFYTIASLANELLEANDKGNLNKLFKKIEKLDLLILDELGYIPLHKHGAELLFQVISLCYEKRSIIITTNLQFGQWNHVFGDPILTEAVVDRLIHHSHLVIFGGDSNRMKKSFLLNNMLEHHHHHH", "soluble on expression in E. coli": "soluble"}, {"sequence": "MEHPNLEENVGEQDFASNDRFFNSYNIVPRRILQANYDSSLRQMEGYQEEIETDNPINESRGDEAEELENEGCDDRDRCTSRNSIDSEIYENSDEEVYDESMYESEEEYADSPFIIDKMEECLQNHQIGELGSRVMEGLETGTLADVQLEEFCRSRVKPEVTPREFYEELASSGNGDWKKFSMGQFVLSKMKSSKDTAWANTEATVNSLAANLSKANTVGSIVKRVISREYAIEEKDGFPRYNLTNFYNNTTLQGQGAVAQLTSVYVGFLKNLFKPSFKIWLFTYRPSSAYNFDKHFVEYPASVIDTIFGRKLDAFSMEVLGVYLPEDLLVGGCYNVSDASETFLQSLGENASKEVERRRKFRGPARKTCIGAMAAAMKSLRQHHYNAARDTVSYCSARSDCKEHLTWHQLRFYRAHSGKTKEECDLARPDDVMAFCRERAMPRYSLSPNRDATS", "soluble on expression in E. coli": "soluble"}, {"sequence": "MLGKGGKRKFDEHEDGLEGKIVSPCDGPSKVSYTLQRQTIFNISLMKLYNHRPLTEPSLQKTVLINNMLRRIQEELKQEGSLRPMFTPSSQPTTEPSDSYREAPPAFSHLASPSSHPCDLGSTTPLEACLTPASLLEDDDDTFCTSQAMQPTAPTKLSPPALLPEKDSFSSALDEIEELCPTSTSTEAATAATDSVKGTSSEAGTQKLDGPQESRADDSKLMDSLPGNFEITTSTGFLTDLTLDDILFADIDTSMYDFDPCTSSSGTASKMAPVSADDLLKTLAPYSSQPVTPSQPFKMDLTELDHIMEVLVGS", "soluble on expression in E. coli": "soluble"}, {"sequence": "MSTPTAADRAKALERKNEGNVFVKEKHFLKAIEKYTEAIDLDSTQSIYFSNRAFAHFKVDNFQSALNDCDEAIKLDPKNIKAYHRRALSCMALLEFKKARKDLNVLLKAKPNDPAATKALLTCDRFIREERFRKAIGGAENEAKISLCQTLNLSSFDANADLANYEGPKLEFEQLYDDKNAFKGAKIKNMSQEFISKMVNDLFLKGKYLPKKYVAAIISHADTLFRQEPSMVELENNSTPDVKISVCGDTHGQFYDVLNLFRKFGKVGPKHTYLFNGDFVDRGSWSCEVALLFYCLKILHPNNFFLNRGNHESDNMNKIYGFEDECKYKYSQRIFNMFAQSFESLPLATLINNDYLVMHGGLPSDPSATLSDFKNIDRFAQPPRDGAFMELLWADPQEANGMGPSQRGLGHAFGPDITDRFLRNNKLRKIFRSHELRMGGVQFEQKGKLMTVFSAPNYCDSQGNLGGVIHVVPGHGILQAGRNDDQNLIIETFEAVEHPDIKPMAYSNGGFGL", "soluble on expression in E. coli": "soluble"}, {"sequence": "MSLDVNYVPQNTSDAPAIPSAALQQLTWTPVDQSKTQTTQLATGGQQLNVPGISGPVAAYSVPANIGELTLTLTSEVNKQTSVFAPNVLILDQNMTPSAFFPSSYFTYQEPGVMSADRLEGVMRLTPALGQQKLYVLVFTTEKDLQQTTQLLDPAKAYAKGVGNSIPDIPDPVARHTTDGLLKLKVKTNSSSSVLVGPLFGSSAPAPVTVGNTAAPAVAAPAPAPVKKSEPMLNDTESYFNTAIKNAVAKGDVDKALKLLDEAERLGSTSARSTFISSVKGKGEGHHHHHH", "soluble on expression in E. coli": "soluble"}, {"sequence": "SAGSVADSDAVVKLDDGHLNNSLSSPVQADVYFPRLIVPFCGHIKGGMRPGKKVLVMGIVDLNPESFAISLTCGDSEDPPADVAIELKAVFTDRQLLRNSCISGERGEEQSAIPYFPFIPDQPFRVEILCEHPRFRVFVDGHQLFDFYHRIQTLSAIDTIKINGDLQITKLG", "soluble on expression in E. coli": "soluble"}, {"sequence": "ILAVLFANSVGNVLIERFNGVPAEERLHWRSFLVKLGADNLKGVKNEELLVACHKSVYIVYTMLGDVSIFLVGKDEYDELALAETIYIITAAVKDVCGKPPTERVFLDKYGRICLCLDEIVW", "soluble on expression in E. coli": "not soluble"}, {"sequence": "MSLNSKKETINIGCSLPLTGEGANYGRSVKEGVDLAIEEINQSEMFDLPLKVIYEDDKMDPREGVNAINKLITADNVPIIIGPFGSSITLAVAPIANKNKVVLLGASATADNIKDAGDYIFRITPPNSKQGNDVASFCFNSLNSKKAAIIYQTNDYGTTLKTAFESEYLKLGGEVLIVEGVDLGNKDFKTQILKIKSKQVDVVFFPLHVAESGNFLKQSKELGLNVKFISCDGAMVDDLLKLAGNAAEGTYYTSLALAYGMNDSLINSFNTNFKKKYNKEPDVYAAYYYEVTYILAHALKKANGNIGQIKEILYSINGENAYNGITGLTSFDTYGEVDKSFSIYVVSNNKFSLFKEGHHHHHH", "soluble on expression in E. coli": "soluble"}, {"sequence": "MKQSKEEFIKSEGADFPGKTYVDCVLQHVFDFQRNYLLKDMFQVHKAHIVMLTEENLMKKEEAKFILHALKKVEEIPEEQLLYTEQHEDLFFLVEHLISQEAKSDFVSNMHIGRSRNDMGVTMYRMSLRRYVLRLMEHHLLLQESILQLAADHKETIMPAYTHTQPAQPTTFGHYTLAIYDTMQRDLERMKKTYKLLNQSPMGAAALSTTSFPIKRERVADLLGFTNVIENSYDAVAGADYLLEVSSLLMIMMTNTSRWIHDFLLLATKEYDGIAVARPYVQISSIMPQKRNPVSIEHARAITSSAPGEAFTVFQMIHNTPFGEIVDTEDDLQPYLYKGIEKAIRVFCILNAVIRTMKVEEDTLKRRSYKHAITITDFADVLTKNYGIPFRHAHHAASVIANMSLEQKKELHELCFKDVNIYLQEKFKIQLLEKEWEEIISPEAFIQKRNVYGGPSKKEMERMINNRKELFRKEEEVFEEEKQRILQAENDLNMLASNIIES", "soluble on expression in E. coli": "not soluble"}, {"sequence": "FISRFAPDQPRKGADILVEALERQGVETVFAYPGGASMEIHQALTRSSSIRNVLPRHEQGGVFAAEGYARSSGKPGICIATSGPGATNLVSGLADALLDSVPLVAITGQVPRRMIGTDAFQETPIVEVTRSITKHNYLVMDVEDIPRIIEEAFFLATSGRPGPVLVDVPKDIQQQLAIPNWEQAMRLPGYMSRMPKPPEDSHLEQIVRLISESKKPVLYVGGGCLNSSDELGRFVELTGIPVATTLMGLGSYPCDDELSLHMLGMHGTVYANYAVEHSDLLLAFGVRFDDRVTGKLEAFASRAKIVHIDIDSAEIGKNKTPHVSVCGDVKLALQGMNKVLENRAEELKLDFGVWRNELNVQKQKFPLSFKTFGEAIPPQYAIKVLDELTDGKAIISTGVGQHQMWAAQFYNYKKPRQWLSSGGLGAMGFGLPAAIGASVANPDAIVVDIDGDGSFIMNVQELATIRVENLPVKVLLLNNQHLGMVMQWEDRFYKANRAHTFLGDPAQEDEIFPNMLLFAAACGIPAARVTKKADLREAIQTMLDTPGPYLLDVICPHQEHVLPMIPSGGTFNDVITEGDGRIKY", "soluble on expression in E. coli": "soluble"}]}]}
